Assays:
[1] = target: group M consensus gp140 Env, CON-S gp140CFI, WT glycosylated (HIV-1 group M consensus); experiment: SPR
[2] = substrate: CON-S gp140CFI Env, natively deglycosylated with PNGase F 500 U per µg (HIV-1 group M consensus); experiment: SPR

B1: 2F5 reverted unmutated ancestor antibody RUA1 (antibody, V domains shown)
VH: QITLKESGPTLVKPTQTLTLTCTFSGFSLSTSGVGVGWIRQPPGKALEWLALIYWNDDKRYSPSLKSRLTITKDTSKNQVVLTMTNMDPVDTATYYCAHRRGPTTLFGVVIARGPVNGMDVWGQGTTVTVSS
VL: AIQLTQSPSSLSASVGDRVTITCRASQGISSALAWYQQKPGKAPKLLIYDASSLESGVPSRFSGSGSGTDFTLTISSLQPEDFATYYCQQFNNYPHTFGGGTKVEIK
B1 showed a Kd [1] of 118 nM and a Kd [2] of 67 nM.

B2: 2F5 reverted unmutated ancestor antibody RUA2 (antibody, V domains shown)
VH: QITLKESGPTLVKPTQTLTLTCTFSGFSLSTSGVGVGWIRQPPGKALEWLALIYWDDDKRYGPSLKSRLTITKDTSKNQVVLTMTNMDPVDTATYYCAHRRGPTTLFGVVIARGPVNGMDVWGQGTTVTVSS
VL: AIQLTQSPSSLSASVGDRVTITCRASQGISSALAWYQQKPGKAPKLLIYDASSLESGVPSRFSGSGSGTDFTLTISSLQPEDFATYYCQQFNNYPHTFGGGTKVEIK
For B2, the Kd [1] was 4000 nM and the Kd [2] was 360 nM.
